Test results from patent publication US20110289632.

Test system: 3-ketomyristoyl-ACP (enzymatically prepared from ShACP)

Chain of ShMKS2 (methylketone synthase 2 from Solanum habrochaites f glabratum), recombinant, without the transit peptide, His-tagged (chain, as listed by the source): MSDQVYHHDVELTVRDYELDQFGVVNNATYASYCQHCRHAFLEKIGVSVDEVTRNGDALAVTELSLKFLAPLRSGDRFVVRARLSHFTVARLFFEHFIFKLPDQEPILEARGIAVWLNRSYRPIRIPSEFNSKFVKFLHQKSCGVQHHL

ShMKS2 (methylketone synthase 2 from Solanum habrochaites f glabratum), recombinant, without the transit peptide, His-tagged
amount of 2-tridecanone formed (in vitro thioesterase activity assay, acid and heat treatment, GC-MS): approximately 3-fold higher than levels found in buffer-incubated substrate solution treated with acid and heat
